Laboratory results reported in publication PMC9507130.

Molecular target: Vrl1-Envy (S. cerevisiae)
Assay: co-IP; yeast spheroplast lysates (0.1% Tween-20, 50 mM HEPES, 1 mM EDTA, 50 mM NaCl, pH 7.4); rabbit anti-GFP or anti-HA, Protein A Sepharose, 4 °C; western blot; Vrl1 over-expressed in some panels; vin1Δ strain for Vps5-3HA with Vrl1-Envy

B1: Vin1-3HA (natural protein)
chain: MENDKASHASPSIGVNEFVVQGEISIDDSERSVKSVSVSISDDEDSKTDVQDNMATPSTRSKFQTDLAIDNRLLEKDPKYKKLFTEKRRRRRPESCINLMTKGKGTGQKDNINDQIFSLRILPGSDLNSLKDSLWIIKISTQPDVEKTIARAFSDFYWLYHQLQNNHWGKTIPPPTRSNILVEKDEFAINHLFMIRNNEKYDPIFNFKPEYIISLQLMAMIKHIFNDKVLRLDSNFIDFISWDDDLPESLQIVVDDSTFTGDKILMTSSQFRELKEFHKQSKKVESITNSHASLIPVTELTEIYISPTKLFSRKDYQRLFQPQSTDNTFNNNDPLIQEWIPKSKTLFTSLSFGSSAPTYQEASTEIQACHDWVSISKEQWKQLLYHVLQYIVDEAVKVNSVINEFTECLKQISLDEVIRANSELFLKFSKLNESFLKKFKGASRQDILKLIILFDENVRFCESFESILNQRLKLGKILSIIEVDLDKKKNFLDKLSPGNNNSNNEDLKIRTAEDEYRIVLKRYNRVKQSWEKIMEDILNERKEFEKREAAEVNSCLKSIRDLNMDEKKHYLQLWQDFVPDEHISQ
percent recovery of Vin1 in the co-IP: 64%
